Measurements published in US20030144176.
Where a chain is given by its changes, count along the chain named.

B1: endogenous ERK5 immunoprecipitated from neonatal rat cardiomyocytes (protein)
chain: AEPLKEEDGEDGSGEPPGRVKAEPVHTAASVVAKNLALLKARSFDVTFDVGDEYEIIETIGNGAYGVVSSARRRLTGQQVAIKKIPNAFDVVTNAKRTLRELKILKHFKHDNIIAIKDILRPTVPYGEFRSVYVVLDLMESDLHQIIHSSQPLTLEHVRYFLYQLLRGLKYMHSAQVIHRDLKPSNLLVNENCELKIGDFGMARGLCTSPAEHQYFMTEYVATRWYRAPELMLSLHEYTQAIDLWSVGCIFGEMLARRQLFPGKNYVHQLQLIMMVLGTPSPAVIQAVGAERVRAYIQSLPPRQPVPWETVYPGADRQALSLLGRMLRFEPSARISAAAALRHPFLAKYHDPDDEPDCAPPFDFAFDREALTRERIKEAIVAEIEDFHARREGIRQQIRFQPSLQPVASEPVCPDVEMPSPWAPSGDCAMESPPPALPPCSGPAPDTVDLTLQPAPPASELAPPKREGAISDNTKAALKAALLKSLRSRLRDGPSAPLEAPEPRKPVTAQERQREREEKRRRRQERAKEREKRRQERERKERGAGTLGGPSTDPLAGLVLSDNDRSLLERWTRMARPPVPAPAPAPAPTPKPSSAQPTSPPNGPVSQSTAPLQPAGSIPGPASQPVCPPPGPVPQPAGPVPAPLQTAPSTSLLASQSLVPPSGLPGSGAPEVLPYFPSGPPPPDPGLTPQPSTSESPDVNLVTQQLSKSQVEDPLPPVFSGTPKGSGAGYGVGFDLEEFLNQSFDMGVADGPQDGQADSASLSASLLADWLEGHGMNPADIESLQREIQMDSPMLLSDLPDLQEP
B2: HA-tagged activated MEK5 (MEK5DD), MEK5β splice isoform with aspartate substitutions of serine-222 and threonine-226 (protein)
chain: MEQQVNGQLIEPLQIFPRACKPPGERNIHGLKVNTRAGPSQHTSPVVSDSLPSNSLKKSSAELRKILANGQMNEQDIRYRDTLGHGNGGTVYKAYHVPSGKILAVKVILLDITLELQKQIMSELEILYKCDSSYIIGFYGAFFVENRISICTEFMDGGSLDVYRKIPEHVLGRIAVAVVKGLTYLWSLKILHRDVKPSNMLVNTSGQVKLCDFGVSTQLVNDIAKDYVGTNAYMAPERISGEQYGIHSDVWSLGISFMELALGRFPYPQIQKNQGSLMPLQLLQCIVDEDSPVLPLGEFSEPFVHFITQCMRKQPKERPAPEELMGHPFIVQFNDGNATVVSMWVCRALEERRSQQGPP
B3: HA-tagged wild-type MEK5 (MEK5WT), MEK5β splice isoform (protein)
chain: B2 chain with D222S, D226T

Experiments:
[1] = molecular target: glutathione-S-transferase (GST) fused to MEF2C amino acids 204-321
[2] = molecular target: GST-ERK5KMΔ, a truncated, catalytically inactive form of ERK5 with lysine-83 mutated to methionine, fused to glutathione-S-transferase

| Protein | ERK5 immunoprecipitation (IP) kinase assay: 32P phosphorylation of GST-MEF2C [1] | IP kinase assay: 32P phosphorylation of GST-ERK5KM substrate by immunoprecipitated HA-MEK5 [2] |
| --- | --- | --- |
| B1 | Phosphorylation of GST-MEF2C indicated that ERK5 was activated 2-4 fold by hypertrophic agents | – |
| B2 | – | AdMEK5DD produced a constitutively active kinase |
| B3 | – | Some kinase activity was also observed with the AdMEK5WT virus |
